Assay results: publication PMC5519370

Target: TgSPT1 Δ158 (Toxoplasma gondii serine palmitoyltransferase 1 with an N-terminal deletion of 158 amino acids) (Toxoplasma gondii)
Assay: SAXS (small-angle X-ray scattering); size exclusion chromatography HPLC mode, Beamline B21 Diamond Light Source; sample concentrated to ~5 mg/ml; Porod volume 150387 Å^3 equivalent to 94 kDa; ab initio envelope compared with a homodimeric homology model

“TgSPT1 Δ158 (Toxoplasma gondii serine palmitoyltransferase 1 with an N-terminal deletion of 158 amino acids) (enzyme)” was tested, and the stoichiometry N was 2.
